The source of these data is patent US20150225459A1 (ARCH CANCER THERAPEUTICS, published 2015).

Ends that are not written are not given here.

The assay addresses T1, LSALT phage (T7 phage displaying the LSALT peptide LSALTPSPSWLKYKAL) (also: displayed on T7 phage, fused to the coat protein).
T1 construct: The peptide is not naturally occurring; it is the out-of-frame product of Ube2n; also called Ube2n (LSALT) phage; LSALT-bacteriophage
T1 peptide: LSALTPSPSWLKYKAL
Description: biopanning of a combinatorial M13 phage library against LSALT phage immobilized on nitrocellulose. The text has this:
When the LSALT phage was immobilized on nitrocellulose and biopanned against with a combinatorial M13 phage library, the following peptides were isolated as peptides that bind specifically with the LSALT. These peptides provide potential targets for action of LSALT peptides, variants and modifications thereof.
IPPSYSATLPALR (also called putative target of LSALT) [IPPSYSATLPALR (SEQ ID NO: 4)]: the binding result is reported as “binds”.
The result for HLPSIIPTMPYR (also called putative target of LSALT) [HLPSIIPTMPYR (SEQ ID NO: 2)] reads “binds”.
As to PTLPWKK (also called putative target of LSALT) [PTLPWKK (SEQ ID NO: 10)], the binding result is “binds”.
The result for TNITESQQLNWR (also called putative target of LSALT) [TNITESQQLNWR (SEQ ID NO: 7)] reads “binds”.
The entry for NERNSWH (also called putative target of LSALT) [NERNSWH (SEQ ID NO: 16)] is “binds”; for EQFTNLLDMYTA (also called putative target of LSALT) [EQFTNLLDMYTA (SEQ ID NO: 3)] it is “binds”; for LGPAHLY (also called putative target of LSALT) [LGPAHLY (SEQ ID NO: 13)] it is “binds”.
As for GLHNKTH (also called putative target of LSALT) [GLHNKTH (SEQ ID NO: 14)], the binding result is listed as “binds”.
The entry for EQFTNLLDMTYA (also called putative target of LSALT) [EQFTNLLDMTYA (SEQ ID NO: 5)] is “binds”; for LNTQTGK (also called putative target of LSALT) [LNTQTGK (SEQ ID NO: 15)] it is “binds”.
The entry for TTEHPRK (also called putative target of LSALT) [TTEHPRK (SEQ ID NO: 12)] is “binds”; for FEQKKGT (also called putative target of LSALT) [FEQKKGT (SEQ ID NO: 8)] it is “binds”; for HATGTHGLSLSH (also called putative target of LSALT) [HATGTHGLSLSH (SEQ ID NO: 6)] it is “binds”.
The entry for DNTRVDT (also called putative target of LSALT) [DNTRVDT (SEQ ID NO: 9)] is “binds”; for MNVTPRQ (also called putative target of LSALT) [MNVTPRQ (SEQ ID NO: 11)] it is “binds”.
